Target: recombinant 6xHis-GBP (Arabidopsis thaliana) (UniProt Q9LU39)
Assay: MST; 6xHis-GBP labelled with RED-NHS 2nd generation as target, with or without GluTR, ligand in 1:1 dilutions from 5 nM to 110 µM; Monolith NT.115, 30°C, 40% LED power, PBS

Sequence of recombinant 6xHis-GBP (Arabidopsis thaliana) (Q9LU39 43-317): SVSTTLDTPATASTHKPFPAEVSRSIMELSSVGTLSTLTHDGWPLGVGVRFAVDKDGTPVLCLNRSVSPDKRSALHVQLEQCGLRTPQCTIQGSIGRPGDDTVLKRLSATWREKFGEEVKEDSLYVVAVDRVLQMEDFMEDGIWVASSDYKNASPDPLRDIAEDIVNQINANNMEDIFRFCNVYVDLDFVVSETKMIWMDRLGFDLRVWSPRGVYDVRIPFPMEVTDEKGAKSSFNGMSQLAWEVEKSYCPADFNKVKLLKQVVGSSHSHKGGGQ

- Kd: 42 nM
Substance: recombinant 6xHis-GluTR (from UniProt P42804 62-543) (enzyme)

From paper PMC9614494
